Results taken from paper PMC6165198.

What was measured:
[1] = molecular target: fused glucose-6-phosphate dehydrogenase::6-phosphogluconolactonase (G6PD::6PGL) protein from Giardia lamblia (Giardia lamblia); assay: SEC; Shodex Protein KW-802.5 column, 50 mM Tris buffer pH 8.75, protein incubated 2 h at 37 °C with either 0.45 M or no Gdn-HCl, flow 0.5 mL/min, calibrated with Bio-Rad standards
[2] = molecular target: fused glucose-6-phosphate dehydrogenase::6-phosphogluconolactonase (G6PD::6PGL) protein from Giardia lamblia (Giardia lamblia)
[3] = molecular target: fused glucose-6-phosphate dehydrogenase::6-phosphogluconolactonase (G6PD::6PGL) protein from Giardia lamblia (Giardia lamblia); assay: SEC; Sephacryl 100 (16/60) gel filtration column, 50 mM Tris buffer pH 7.85, flow 0.5 mL/min, calibrated with Bio-Rad gel filtration standards; oligomeric state from the elution volume

stoichiometry N [1]: 2
residual G6PD activity after incubation of the enzyme at 0 to 100 µg/mL for 2 h at 37 °C (stability to dilution) [2]: 100%
stoichiometry N [3]: 2
Substance: fused glucose-6-phosphate dehydrogenase::6-phosphogluconolactonase (G6PD::6PGL) protein from Giardia lamblia (enzyme)
